In patent US20160304617A1 one finds Median fluorescence intensity (MFI) and fold less binding (against the anti-5T4 proteins) data, which are given here for one substance.

Test [1] deals with Human 5T4 full length (human) (UniProt Q13641). The test is described as follows: flow cytometry on PC3 cells, 5 µg/ml probe, anti-Fc FITC. For orientation: A flow cytometer gives signals particle by particle.
Test [2] shares this target. Kind of test: flow cytometry on HT29 cells, 5 µg/ml probe, anti-Fc FITC.
Test [3] shares this target. The test is described as follows: flow cytometry on PA1 cells, 5 µg/ml probe, anti-Fc FITC.
Test [4] shares this target. The test is described as follows: flow cytometry on LNCaP cells, 5 µg/ml probe, anti-Fc FITC.
The target is the same in test [5]. The test is described as follows: flow cytometry on MDAMB361 cells, 5 µg/ml probe, anti-Fc FITC.
Test [6] has the same target. The test is described as follows: flow cytometry on BxPC3 cells, 5 µg/ml probe, anti-Fc FITC.
Test [7] has the same target. The test is described as follows: flow cytometry on A431 cells, 5 µg/ml probe, anti-Fc FITC.
The target is the same in test [8]. The test is described as follows: flow cytometry on Rec-MDA-MB-231-5T4 cells (as the row is labelled), 5 µg/ml probe, anti-Fc FITC.
For test [9] the target is unchanged. The test is described as follows: flow cytometry on recombinant MDA-MB-231-5T4 FL cells at 5 µg/ml.
For test [10] the target is unchanged. The test is described as follows: flow cytometry on DLD1 cells, 5 µg/ml probe, anti-Fc FITC.
Test [11] has the same target. Kind of test: flow cytometry on MBA-MB-231 cells (as the row is labelled), 5 µg/ml probe, anti-Fc FITC.
For test [12] the target is unchanged. The test is described as follows: flow cytometry on SKOV3 cells, 5 µg/ml probe, anti-Fc FITC.

Chain of UniProt Q13641 (Q13641 32-420): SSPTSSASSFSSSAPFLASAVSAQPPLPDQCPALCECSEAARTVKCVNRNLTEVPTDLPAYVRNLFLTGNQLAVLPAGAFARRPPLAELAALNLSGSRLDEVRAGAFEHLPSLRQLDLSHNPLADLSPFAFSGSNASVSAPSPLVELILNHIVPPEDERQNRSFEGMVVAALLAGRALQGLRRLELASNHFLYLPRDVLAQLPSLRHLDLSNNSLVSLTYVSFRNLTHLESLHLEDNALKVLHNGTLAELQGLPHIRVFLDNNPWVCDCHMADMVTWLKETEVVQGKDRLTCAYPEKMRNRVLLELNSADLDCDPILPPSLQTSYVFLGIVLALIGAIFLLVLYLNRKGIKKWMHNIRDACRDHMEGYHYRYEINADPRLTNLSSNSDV

In the case of unrelated (control) Fc fusion protein, the Median fluorescence intensity (MFI) stood at 3 MFI in [1]; 12 MFI in test [2]; 6 MFI in [3]; 23 MFI in [4]; 5 MFI in [5]; 14 MFI in [6]. The Median fluorescence intensity (MFI) in test [7] is 13 MFI; in test [8], 8 MFI; in test [10] it was 14 MFI; in test [11] it was 4 MFI; in test [12], 6 MFI. Moreover, the fold less binding (against the anti-5T4 proteins) in test [9] turned out to be 200 fold.
